The values below come from publication PMC10598227, “Structural insights for selective disruption of Beclin 1 binding to Bcl-2” (Communications Biology, 2023).

For one assay, the target named is T1, Bcl-2(1-206) (human, UniProt P10415 1-206).
T1 construct: vector analogous to that of human Bcl-2(1-218), isoform alpha; Uniformly 15N-labelled for NMR; Vector was a gift from Beth Levine, called analogous to the pSKB2 vector of Bcl-2(1-218); also called Bcl-2 fragment lacking the juxtamembrane region; Bcl-2(1-2-6); source: E. coli BL21 (DE3), purified (Ni-NTA, His6-tag cleaved with 3C protease, Superdex 75); not shown: His6, N-terminal, cleaved
The assay can be described thus: NMR titration; 1H-15N TROSY-HSQC spectra of 10-45 uM uniformly 15N-labelled Bcl-2 fragment without and with Beclin 1 BH3 peptide added from a d6-DMSO stock; 25 °C, 20 mM sodium phosphate pH 7.3, 1 mM TCEP, 7% D2O. As to conditions: both partners purified.

In another assay the target is T2, Bcl-2(1-218) (human, UniProt P10415 1-218).
T2 construct: Uniformly 15N-labelled for NMR. pSKB2 vector with HRV 3C cleavage site; also called cytoplasmic region of Bcl-2 (residues 1-218); Becl-2(1-218); source: E. coli BL21 (DE3), purified (Ni-NTA, His6-tag cleaved with 3C protease, Superdex 75); not shown: His6, N-terminal, cleaved
The description is as above. The settings on record: both partners purified.

T1 sequence (P10415 1-206): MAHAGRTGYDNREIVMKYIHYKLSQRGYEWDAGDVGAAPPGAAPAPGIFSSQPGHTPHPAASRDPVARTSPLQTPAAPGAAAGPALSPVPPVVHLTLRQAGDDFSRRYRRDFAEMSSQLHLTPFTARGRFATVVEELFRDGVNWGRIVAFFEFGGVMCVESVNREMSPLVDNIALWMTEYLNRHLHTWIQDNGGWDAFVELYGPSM
T2 sequence (P10415 1-218): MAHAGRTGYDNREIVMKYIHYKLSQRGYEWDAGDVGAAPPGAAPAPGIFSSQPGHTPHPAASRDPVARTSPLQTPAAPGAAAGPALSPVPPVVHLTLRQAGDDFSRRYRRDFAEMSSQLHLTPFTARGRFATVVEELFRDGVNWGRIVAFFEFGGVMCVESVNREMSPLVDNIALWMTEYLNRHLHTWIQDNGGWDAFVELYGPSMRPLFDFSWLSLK

B1: Beclin 1 BH3 peptide (peptide)
peptide: DGGTMENLSRRLKVTGDLFDIMSGQT
notes: Beclin 1, human, residues 105-130 (BH3 domain); L-amino acid peptide, dissolved in d6-dimethylsulfoxide; also called Beclin 1 BH3 domain; source: synthetic peptide (Protein Chemistry Technology Core, UT Southwestern), HPLC purified
For the molecule B1, the binding result in the assay with Bcl-2(1-206) and in the assay with Bcl-2(1-218) was “binds” in each case.
